Data as given in patent US20050164345A1, “Synthesis of human procollagens and collagens in recombinant DNA systems” (priority 1992, published 2005).
Where two headings read alike, the source gives them in different places.

Tested on: prolyl 4-hydroxylase
Experiment: Km values of prolyl 4-hydroxylase, assay based on decarboxylation of 2-oxo[1-14C]glutarate
Type: biochemical, human
Settings: other substrates held constant
Description: When the time course of protein expression was examined, Sf9 cells infected with recombinant viruses were labeled with [^35S]methionine (10 μCi/μl; Amersham; 1 Ci=[…]) for 2 hours at various time points between 24 and 50 hours after infection and collected for analysis by SDS/10% PAGE. To determine the maximal accumulation of recombinant protein, cells were harvested at various times from 24 to 96 hours after infection and analyzed on by SDS/10% PAGE. Both the 0.1% Triton X-100- and 1% SDS-soluble fractions of the cells were analyzed. Prolyl 4-hydroxylase activity was assayed by a method based on the decarboxylation of 2-oxo[1-^14C^−]glutarate (Kivirikko et al., Methods in Enzymology 82: 245-304 (1982)). The Km values were determined by varying the concentrations of one substrate in the presence of fixed concentration of the second, while the concentrations of the other substrates were held constant (Myllyla et al., Eur. J. Biochem. 80: 349-357 (1977)). Protein disulfide-isomerase activity of the β subunit was measured by glutathione: insulin transhydrogenase assay (Carmichael et al., J. Biol. Chem. 252: 7163-7167 (1977)). Western blot analysis was performed using a monoclonal antibody, 5B5, to the β subunit of human prolyl 4-hydroxylase (Hoyhtya et al., Eur. J. Biochem. 141: 477-482 (1984)). Prolyl 4-hydroxylase was purified by a procedure consisting of poly (L-proline) affinity chromatography, DEAE-cellulose chromatography, and gel filtration (Kivirikko et al., Methods in Enzymology 144: 96-114 (1987)).
Table 2 presented data on the enzymic activity of the recombinant enzyme. The Km values were determined by varying the concentration of one substrate in the presence of fixed concentrations of the second while the concentration of the other substrates were held constant.

[1] = substrate 2-oxoglutarate, read-out: Km value, 2-oxoglutarate
[2] = substrate (Pro—Pro-Gly)10, read-out: Km value, (Pro—Pro-Gly)10
[3] = substrate Fe^+2, read-out: Km value, Fe^+2
[4] = substrate ascorbate, read-out: Km value, ascorbate

Q: “α582β2: recombinant human prolyl 4-hydroxylase tetramer from Sf9 cells infected with α58 virus and β virus” was tested. Which Km [1] did it give?
A: Its Km is 22 µM.

Q: What about the Km [2] of the same substance?
A: Its Km is 18 µM.

Q: And the Km [3]?
A: The Km was 4 µM.

Q: What about the Km [4] of the same substance?
A: The Km was 330 µM.

Q: “α592β2: recombinant human prolyl 4-hydroxylase tetramer from Sf9 cells infected with α59 virus and β virus” was tested. Which Km [1] did it give?
A: The Km was 25 µM.

Q: And the Km [2]?
A: The Km was 18 µM.

Q: What about the Km [3] of the same substance?
A: Its Km is 4 µM.

Q: What about the Km [4] of the same substance?
A: The Km was 330 µM.
